# T1: PdbSCL1 (Populus davidiana x P. bolleana …, UniProt A0AAJ6V7V0 1-473)
# T1 sequence: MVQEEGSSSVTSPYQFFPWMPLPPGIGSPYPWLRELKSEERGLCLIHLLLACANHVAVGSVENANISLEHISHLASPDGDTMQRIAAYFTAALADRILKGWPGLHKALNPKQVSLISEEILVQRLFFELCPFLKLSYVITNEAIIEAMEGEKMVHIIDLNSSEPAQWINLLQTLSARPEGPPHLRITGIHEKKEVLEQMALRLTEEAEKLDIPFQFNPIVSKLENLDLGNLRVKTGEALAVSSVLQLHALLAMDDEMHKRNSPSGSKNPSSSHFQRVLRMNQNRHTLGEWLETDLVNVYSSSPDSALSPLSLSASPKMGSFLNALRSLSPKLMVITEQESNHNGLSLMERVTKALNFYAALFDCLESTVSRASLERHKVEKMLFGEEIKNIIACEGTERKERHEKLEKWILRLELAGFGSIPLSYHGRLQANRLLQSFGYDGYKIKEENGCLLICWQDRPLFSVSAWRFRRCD
# B1: ABRE probe (3x CACGTG) (dsDNA)
# DNA 1: CACGTGCACGTGCACGTG
# DNA 2: CACGTGCACGTGCACGTG
# B2: NFY probe (3x CCAAT) (dsDNA)
# DNA 1: CCAATCCAATCCAATC
# DNA 2: GATTGGATTGGATTGG
# B3: NFY mutant competitor (CCAAT to TTTTT) (dsDNA)
# DNA 1: TTTTTTTTTTTTTTTC
# DNA 2: GAAAAAAAAAAAAAAA
# B4: PCF probe (3x TGGGCC) (dsDNA)
# DNA 1: TGGGCCTGGGCCTGGGCC
# DNA 2: GGCCCAGGCCCAGGCCCA
# Assays:
# PdbSCL1 [1] = molecular target: T1, PdbSCL1; test: EMSA; Chemiluminescent EMSA kit (Beyotime), PAGE; buffer, salt, pH and temperature not stated; details: protein: recombinant; tags: MBP (pMALc5X); label: 3' biotin; blunt
# PdbSCL1 [2] = molecular target: T1, PdbSCL1; test: competition; EMSA, unlabelled mutant competitor; Chemiluminescent EMSA kit (Beyotime), PAGE; buffer, salt, pH and temperature not stated; details: protein: recombinant; tags: MBP (pMALc5X); label: unlabelled; blunt
Binder,binding result (PdbSCL1 [1]),binding result (PdbSCL1 [2])
B1,binds,
B2,binds,
B3,,no binding
B4,binds,
